The values that follow come from patent US20230159603A1.

The assay concerns the target CD122-Fc (UniProt P14784). The assay can be described thus: SPR, construct immobilised, CD122-Fc flowed, after protease cleavage. A general note: SPR reads the build-up and loss of mass on a sensor chip optically.

Chain of CD122-Fc (P14784 27-239 limits assumed): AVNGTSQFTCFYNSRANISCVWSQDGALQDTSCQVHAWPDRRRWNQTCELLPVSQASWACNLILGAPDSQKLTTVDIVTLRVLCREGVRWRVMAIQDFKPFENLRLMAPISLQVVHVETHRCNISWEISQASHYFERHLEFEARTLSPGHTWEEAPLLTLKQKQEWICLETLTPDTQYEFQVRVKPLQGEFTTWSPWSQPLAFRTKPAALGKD

B1: AK168 after protease cleavage (Fc fusion, from a related filing)
chain: LYHPSGPAPTSSSTKKTQLQLEHLLLDLQMILNGINNYKNPKLTAMLTAKFAMPKKATELKHLQCLEEALKPLEEVLNLAQSKNFHLRPRDLISNINVIVLELKGSETTFMCEYADETATIVEFLNRWITFAQSIISTLT
Take B1: the dissociation constant Kd was found to be 175 nM.

As usually defined, the Kd is the concentration at which binding is half-saturated.
